# B1: M5: rbRNA, RIG-I agonist, 81 nucleotides, SEQ ID NO:26 (nucleic acid)
# chain: GACGAAGACCACAAAACCAGATAAAAAATTATTTTTTATCTGGTTTTGTGGTCTTCGTCTATAGTGAGTCGTATTAATTTC
# modifications: listed as DNA, chemistry not given here
# How the values were obtained:
# RIG-I = molecular target: T1, RIG-I (Homo sapiens, UniProt O95786); assay: HEK293 IFN-beta promoter dual luciferase reporter, RNA stimulation; format: cell-based; conditions: in vitro transcribed RNA, RIG-I overexpressing HEK293 cells; also activates endogenous RIG-I
# T1 construct: HEK293 cells overexpressing either the full length RIG-I; host or cells: HEK293; HCT116 also for the qRT-PCR validation
# T1 sequence (O95786 1-925): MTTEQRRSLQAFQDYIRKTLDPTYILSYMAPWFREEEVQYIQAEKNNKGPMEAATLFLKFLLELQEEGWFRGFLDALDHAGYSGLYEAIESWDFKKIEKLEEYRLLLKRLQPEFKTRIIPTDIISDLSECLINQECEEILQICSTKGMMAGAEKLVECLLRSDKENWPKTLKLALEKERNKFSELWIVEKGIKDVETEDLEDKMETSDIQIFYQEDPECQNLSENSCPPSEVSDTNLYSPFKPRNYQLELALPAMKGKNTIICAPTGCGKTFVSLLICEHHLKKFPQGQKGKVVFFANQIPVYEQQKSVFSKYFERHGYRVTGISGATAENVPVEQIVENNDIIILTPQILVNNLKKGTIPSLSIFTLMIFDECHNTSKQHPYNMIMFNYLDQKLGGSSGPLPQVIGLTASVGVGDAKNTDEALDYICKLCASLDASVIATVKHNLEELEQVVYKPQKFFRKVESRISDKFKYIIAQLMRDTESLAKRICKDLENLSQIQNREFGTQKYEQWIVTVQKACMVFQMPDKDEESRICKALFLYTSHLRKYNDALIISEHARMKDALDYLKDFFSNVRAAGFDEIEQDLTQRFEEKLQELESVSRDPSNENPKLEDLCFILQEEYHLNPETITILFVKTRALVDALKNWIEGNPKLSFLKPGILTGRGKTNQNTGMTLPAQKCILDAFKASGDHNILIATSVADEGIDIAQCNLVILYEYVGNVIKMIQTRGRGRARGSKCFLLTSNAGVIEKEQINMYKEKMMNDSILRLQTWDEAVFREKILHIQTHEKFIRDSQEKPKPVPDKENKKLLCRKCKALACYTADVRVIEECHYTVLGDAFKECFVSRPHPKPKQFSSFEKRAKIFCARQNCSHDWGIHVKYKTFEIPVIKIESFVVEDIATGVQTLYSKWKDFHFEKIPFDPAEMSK
# Description: We also used reporter HEK293 cells as simple technique to evaluate ability of the given RNA to stimulate IFN-beta production in preliminary in vitro experiments. Technically this was performed as follows: RNA stimulation of HEK293 IFN-beta reporter cells HEK293 cells were seeded in a 24-well plate overnight at a density of 1.5×10^5 cells/ml (75,000 cells/well). Cells were co-transfected with 100 ng of plasmid construct (pCAGGS empty vector, pCAGGS-RIG-I full-length, pCAGGS-RIG-I helicase-RD mutant construct, and […] mutant construct), together with 80 ng of a firefly luciferase reporter gene driven by an IFN-beta promoter and 20 ng of a Renilla luciferase (pRL-null) transfection control. Transfections were performed using a cationic lipid agent, Fugene HD (Promega), at a 3:1 lipid:DNA ratio. Twenty-four hours post-transfection, cells were then stimulated with 1 μg RNA* mixed with Fugene HD at 2:1 lipid: RNA ratio for 24 hours. 20 μl cell lysates were collected in opaque 96-well plates and analyzed for IFN-beta-luciferase and Renilla activity using a BioTek Synergy HT plate reader. The transfection efficiency across different wells was normalized by dividing the IFN-beta luciferase activity with the Renilla activity. All values were further normalized to the unstimulated controls in cells transfected with the empty vector. All pCAGGS RIG-I constructs used in this study were generous gifts from Dr. Jenish Patel and Dr. Adolfo Garcia-Sastre of The Icahn School of Medicine at Mount Sinai in New York City. Synthetic RNA comprised of various stem loop regions of the human U1 snRNA were purchased from IDT Oligos as reported in (Bernard et al., 2012). U1 stem loop I sequence: [NT] ID NO:15); U1 stem loop II sequence: [NT] ID NO:16); U1 stem loop III sequence: [NT] ID NO:17); U1 stem loop IV sequence: [NT] ID NO:18); U1 stem loops I and II sequence: [NT] ID NO:19); U1 stem loops II and III sequence: [NT] ID NO:20). In vitro transcribed U1 RNA stimulation: Full length U1 (pT7U1) plasmid was generously provided by Dr. Joan Steitz (Yale School of Medicine, Yale University). […]
# MC38 tumors = assay: MC38 tumor growth after IR (20Gy) plus intratumoral RNA with jetPEI; format: in vivo, mouse; conditions: in combination with jetPEI lipid and IR (20Gy); injected 1, 7 and 14 days post-IR
# Description: To further test ability of delivered RNAs to affect tumor growth we irradiated MC38 tumors at 20Gy and injected irradiated tumors with stem-loop regions of U1 or U2 at 1, 7 and 14 dayspost-IR. Tumors were grown for 17 days post IR and each 3rd day were measured as described in. As is shown in FIG. 40, injection of stem-loop structures of U1 in combination with jetPEI lipid and IR led to the 2-fold suppression of tumor growth as compared with IR only.
# To further test ability of delivered synthetic RNAs (M5 and M8) to affect tumor growth we irradiated MC38 tumors at 20Gy and injected irradiated tumors 1, 7 and 14 dayspost-IR. Tumors were grown for 17 days post IR and each 3rd day were measured as described in. Injection of synthetic RNAs, M5 and M8, in combination with jetPEI lipid and IR led to the 2-fold suppression of tumor growth as compared with IR only.
molecule,measurement,setting,value
B1,IFN-beta stimulatory activity (IFN-beta luciferase reporter),RIG-I,potent IFN-beta stimulatory activity
same,suppression of tumor growth as compared with IR only,MC38 tumors,2 fold
